Reference: IntAct's records for PubMed 20010843

B1: Cadherin-5 (Homo sapiens), P33151 (parent)
chain: MQRLMMLLATSGACLGLLAVAAVAAAGANPAQRDTHSLLPTHRRQKRDWIWNQMHIDEEKNTSLPHHVGKIKSSVSRKNAKYLLKGEYVGKVFRVDAETGDVFAIERLDRENISEYHLTAVIVDKDTGENLETPSSFTIKVHDVNDNWPVFTHRLFNASVPESSAVGTSVISVTAVDADDPTVGDHASVMYQILKGKEYFAIDNSGRIITITKSLDREKQARYEIVVEARDAQGLRGDSGTATVLVTLQDINDNFPFFTQTKYTFVVPEDTRVGTSVGSLFVEDPDEPQNRMTKYSILRGDYQDAFTIETNPAHNEGIIKPMKPLDYEYIQQYSFIVEATDPTIDLRYMSPPAGNRAQVIINITDVDEPPIFQQPFYHFQLKENQKKPLIGTVLAMDPDAARHSIGYSIRRTSDKGQFFRVTKKGDIYNEKELDREVYPWYNLTVEAKELDSTGTPTGKESIVQVHIEVLDENDNAPEFAKPYQPKVCENAVHGQLVLQISAIDKDITPRNVKFKFILNTENNFTLTDNHDNTANITVKYGQFDREHTKVHFLPVVISDNGMPSRTGTSTLTVAVCKCNEQGEFTFCEDMAAQVGVSIQAVVAILLCILTITVITLLIFLRRRLRKQARAHGKSVPEIHEQLVTYDEEGGGEMDTTSYDVSVLNSVRRGGAKPPRPALDARPSLYAQVQKPPRHAPGAHGGPGEMAAMIEVKKDEADHDGDGPPYDTLHIYGYEGSESIAESLSSLGTDSSDSDVDYDFLNDWGPRFKMLAELYGSDPREELLY
partner: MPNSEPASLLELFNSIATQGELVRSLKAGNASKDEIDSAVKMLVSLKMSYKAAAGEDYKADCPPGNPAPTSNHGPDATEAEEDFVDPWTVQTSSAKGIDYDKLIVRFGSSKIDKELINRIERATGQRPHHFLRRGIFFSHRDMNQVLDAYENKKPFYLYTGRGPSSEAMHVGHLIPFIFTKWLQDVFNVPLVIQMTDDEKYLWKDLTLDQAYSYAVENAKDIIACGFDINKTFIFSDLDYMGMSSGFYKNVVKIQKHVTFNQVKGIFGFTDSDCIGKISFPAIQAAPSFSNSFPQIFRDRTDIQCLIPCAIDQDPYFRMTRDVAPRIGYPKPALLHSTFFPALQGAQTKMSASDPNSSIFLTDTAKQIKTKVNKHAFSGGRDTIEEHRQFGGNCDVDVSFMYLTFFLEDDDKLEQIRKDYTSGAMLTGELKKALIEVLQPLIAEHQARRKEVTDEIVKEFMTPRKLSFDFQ
B2: Tryptophan--tRNA ligase, cytoplasmic (Homo sapiens), P23381 (parent)
chain: B1 partner
partner: B1 chain

Variants of: B1
Conditions: with sywc_human WARS1, P23381

| effect of a mutation on the interaction | Variant |
| --- | --- |
| disrupting interaction | W49A |
| disrupting interaction | W49A;W51A |
| disrupting interaction | W51A |

Variants of: B2
Conditions: with cadh5_human CDH5, P33151

| effect of a mutation on the interaction | Variant |
| --- | --- |
| disrupting interaction | MPNSEPASLLELFNSIATQGELVRSLKAGNASKDEIDSAVKMLVSLKMSYKAAAGEDYKADCPPGNPAPTSNHGPDATEAEEDFVDPWTVQTSSAKGIDYDKLIVRFGSSKIDKELINRIERATGQRPHHFLRRGIFFSHRDMNQVLDAYENKKPFYLYTGRGPSSEAMHVGHLIPFIFTKWLQDVFNVPLVIQMTDDEKYLWKDLTLDQAYSYAVENAKDIIACGFDINKTFIFSDLDYMGMSSGFYKNVVKIQKHVTFNQVKGIFGFTDSDCIGKISFPAIQAAPSFSNSFPQIFRDRTDIQCLIPCWIDQDPYFRMTRDVAPRIGYPKPALLHSTFFPALQGAQTKMSASDPNSSIFLTDTAKQIKTKVNKHAFSGGRDTIEEHRQFGGNCDVDVSFMYLTFFLEDDDKLEQIRKDYTSGAMLTGELKKALIEVLQPLIAEHQARRKEVTDEIVKEFMTPRKLSFDFQ [A310W] |
| disrupting interaction | MPNSEPASLLELFNSIATQGELVRSLKAGNASKDEIDSAVKMLVSLKMSYKAAAGEDYKADCPPGNPAPTSNHGPDATEAEEDFVDPWTVQTSSAKGIDYDKLIVRFGSSKIDKELINRIERATGQRPHHFLRRGIFFSHRDMNQVLDAYENKKPFYLATGRGPSSEAMHVGHLIPFIFTKWLQDVFNVPLVIAMTDDEKYLWKDLTLDQAYSYAVENAKDIIACGFDINKTFIFSDLDYMGMSSGFYKNVVKIQKHVTFNQVKGIFGFTDSDCIGKISFPAIQAAPSFSNSFPQIFRDRTDIQCLIPCAIDQDPYFRMTRDVAPRIGYPKPALLHSTFFPALQGAQTKMSASDPNSSIFLTDTAKQIKTKVNKHAFSGGRDTIEEHRQFGGNCDVDVSFMYLTFFLEDDDKLEQIRKDYTSGAMLTGELKKALIEVLQPLIAEHQARRKEVTDEIVKEFMTPRKLSFDFQ [Y159A;Q194A] |
| disrupting interaction | MPNSEPASLLELFNSIATQGELVRSLKAGNASKDEIDSAVKMLVSLKMSYKAAAGEDYKADCPPGNPAPTSNHGPDATEAEEDFVDPWTVQTSSAKGIDYDKLIVRFGSSKIDKELINRIERATGQRPHHFLRRGIFFSHRDMNQVLDAYENKKPFYLYTGRGPSSEAMHVMHLIPFIFTKWLQDVFNVPLVIQMTDDEKYLWKDLTLDQAYSYAVENAKDIIACGFDINKTFIFSDLDYMGMSSGFYKNVVKIQKHVTFNQVKGIFGFTDSDCIGKISFPAIQAAPSFSNSFPQIFRDRTDIQCLIPCAIDQDPYFRMTRDVAPRIGYPKPALLHSTFFPALQGAQTKMSASDPNSSIFLTDTAKQIKTKVNKHAFSGGRDTIEEHRQFGGNCDVDVSFMYLTFFLEDDDKLEQIRKDYTSGAMLTGELKKALIEVLQPLIAEHQARRKEVTDEIVKEFMTPRKLSFDFQ [G172M] |
| disrupting interaction | MPNSEPASLLELFNSIATQGELVRSLKAGNASKDEIDSAVKMLVSLKMSYKAAAGEDYKADCPPGNPAPTSNHGPDATEAEEDFVDPWTVQTSSAKGIDYDKLIVRFGSSKIDKELINRIERATGQRPHHFLRRGIFFSHRDMNQVLDAYENKKPFYLYTWRGPSSEAMHVGHLIPFIFTKWLQDVFNVPLVIQMTDDEKYLWKDLTLDQAYSYAVENAKDIIACGFDINKTFIFSDLDYMGMSSGFYKNVVKIQKHVTFNQVKGIFGFTDSDCIGKISFPAIQAAPSFSNSFPQIFRDRTDIQCLIPCAIDQDPYFRMTRDVAPRIGYPKPALLHSTFFPALQGAQTKMSASDPNSSIFLTDTAKQIKTKVNKHAFSGGRDTIEEHRQFGGNCDVDVSFMYLTFFLEDDDKLEQIRKDYTSGAMLTGELKKALIEVLQPLIAEHQARRKEVTDEIVKEFMTPRKLSFDFQ [G161W] |
